Each binder was assayed against HDAC5 protein (Abcam, MA, USA) (assay: SPR, Biacore T200; HDAC5 amine-coupled to CM5 chip, peptide as analyte, 1:1 model).
HDAC5 protein (Abcam, MA, USA), sequence (chain, as listed by the source): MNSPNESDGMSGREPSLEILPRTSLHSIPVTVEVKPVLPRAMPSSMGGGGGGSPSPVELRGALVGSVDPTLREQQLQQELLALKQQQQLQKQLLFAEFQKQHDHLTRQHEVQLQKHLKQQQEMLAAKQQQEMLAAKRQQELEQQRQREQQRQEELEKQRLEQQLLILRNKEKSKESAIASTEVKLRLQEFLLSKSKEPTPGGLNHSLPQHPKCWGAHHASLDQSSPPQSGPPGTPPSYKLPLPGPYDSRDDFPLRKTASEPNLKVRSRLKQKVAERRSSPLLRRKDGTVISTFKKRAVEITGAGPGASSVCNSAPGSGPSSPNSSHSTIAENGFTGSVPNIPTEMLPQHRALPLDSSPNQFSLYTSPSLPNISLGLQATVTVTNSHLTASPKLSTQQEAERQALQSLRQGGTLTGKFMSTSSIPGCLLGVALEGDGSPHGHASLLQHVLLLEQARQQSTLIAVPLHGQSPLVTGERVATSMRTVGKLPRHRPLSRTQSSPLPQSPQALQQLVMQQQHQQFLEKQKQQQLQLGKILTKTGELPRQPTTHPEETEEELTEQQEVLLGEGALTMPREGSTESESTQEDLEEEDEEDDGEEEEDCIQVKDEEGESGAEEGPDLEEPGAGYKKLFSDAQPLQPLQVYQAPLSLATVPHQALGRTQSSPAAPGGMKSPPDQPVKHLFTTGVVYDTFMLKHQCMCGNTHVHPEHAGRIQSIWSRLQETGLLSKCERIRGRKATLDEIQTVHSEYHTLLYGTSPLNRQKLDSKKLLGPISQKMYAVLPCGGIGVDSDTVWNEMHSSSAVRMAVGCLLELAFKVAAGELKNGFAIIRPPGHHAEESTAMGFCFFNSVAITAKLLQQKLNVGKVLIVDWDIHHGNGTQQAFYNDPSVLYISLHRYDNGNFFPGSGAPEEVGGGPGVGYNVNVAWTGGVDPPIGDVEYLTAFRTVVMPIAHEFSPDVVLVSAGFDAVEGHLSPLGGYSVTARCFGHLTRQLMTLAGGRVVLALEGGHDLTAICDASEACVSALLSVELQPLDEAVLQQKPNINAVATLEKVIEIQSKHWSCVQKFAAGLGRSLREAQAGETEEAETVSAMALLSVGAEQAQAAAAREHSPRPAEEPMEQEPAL

Binder | Kd | koff | kon
GKMSTRGRKCCRRKK [peptide of SEQ ID NO: 5 (M4)] | 468 nM | 0.0309 s⁻¹ | 65900 M⁻¹ s⁻¹
GKCSTRGRKCMRRKK [peptide of SEQ ID NO: 2 (M1)] | 924 nM | 0.0687 s⁻¹ | 74400 M⁻¹ s⁻¹
GKCSTRGRKMCRRKK [peptide of SEQ ID NO: 3 (M2)] | 725 nM | 0.0595 s⁻¹ | 82100 M⁻¹ s⁻¹
GKMSTRGRKMCRRKK [peptide of SEQ ID NO: 6 (M5)] | 444 nM | 0.0446 s⁻¹ | 100000 M⁻¹ s⁻¹

The remaining lines, values ahead:

Kd | koff | kon | Binder
676 nM | 0.0726 s⁻¹ | 108000 M⁻¹ s⁻¹ | GKCSTRGRKCCRRKK (also called AIP) [peptide of SEQ ID NO: 1]
940 nM | 0.0679 s⁻¹ | 72200 M⁻¹ s⁻¹ | GKCSTRGRKMMRRKK [peptide of SEQ ID NO: 4 (M3)]
704 nM | 0.0476 s⁻¹ | 67500 M⁻¹ s⁻¹ | GKMSTRGRKCMRRKK [peptide of SEQ ID NO: 7 (M6)]
86.8 nM | 0.00478 s⁻¹ | 55000 M⁻¹ s⁻¹ | GKMSTRGRKMMRRKK [peptide of SEQ ID NO: 8 (M7)]
